Experimental data from patent publication US20260034194A1, “PHARMACEUTICAL COMPOSITIONS AND METHODS OF TREATING PSP” (priority 2022, published 2026).
Numbering of substitutions follows the chain as printed. Names may count otherwise.

B1: NpSxph: Nanorana parkeri (High Himalaya frog) saxiphilin, SEQ ID NO: 2 (protein, listed as Nanorana parkeri)
chain: MALTFHTALYFTIVGLSFAASDARHVQWCTISHLEQKKCNDLVGSCNVPDITLACVYRSSTENCMAAIKDGQADAMFLDSGDVYKASLDHYNLKPIIAEPYSLHRELTKCLKHRQESLGGDKMVKGRYIPQCDEKGNYHPVQCHASTGYCWCVNANGEKIEGTNTTPVQTPPTCPSQVLTKCLKERQEALGGKRIAIGRYIPQCDEQGNYRPMQCHGSTGYCWCVNAIGEKIEGTNTPPGNTQPTCQSHDWDTCHYAVAVVKNSSTFQFGQLKGKRSCHSGLSKTDGWNAPVNVFVEKKLLPWDGLAKGSIERAVSKFFSASCIPGATETNLCKQCIGEEEKKCKSSHDEPYYGDHGAFRCLQEDKGDVAFLKNTALPDEHSGVYELLCPDNTRKPLNKYKECNLGKVPADAVVTRKAGDKTKDINDFLLEAQKKKCKLFGSPHGKDLMFDDSTTHLAPLPSEIDAFFFLGVKWYNAMKALTEDVKLPSKNKVRWCTINKPEMMKCKDWAAVSGGAIACTEASCPEHCVKQILKGEADAVTLDVQYMYMALMCGLLPAVEEYPNKDDFHPCQIPGSTIKDFGTKRAVALVKKSNKDIKWNNLKGKKSCHTHVGDIPGWVIPAGLISNQNDNIDIESFFGESCAPGSDTNSKLCKLCIGDPENPKASTRCSLSDKEAYYGNEGAFRCLVEKGDVAFVPHTVVFANTDGKNPAEWAKDLKSEDFEILCLDGSRAPVTNYRGCNLSGLPPRAIVTREESVSDVVRILINQQSLYGRNGFEKDMFQMFSSAKGQNLLFNDETQCLIEFDRQPKDIMEDYFGVRYYTAVYSASRSAVPSELIPACTFKHC
B2: I782A: RcSxph STX binding pocket mutant I782A (protein)
chain: MAPTFQTALFFTIISLSFAAPNAKQVRWCAISDLEQKKCNDLVGSCNVPDITLVCVLRSSTEDCMTAIKDGQADAMFLDSGEVYEASKDPYNLKPIIAEPYSSNRDLQKCLKERQQALAKKMIGHYIPQCDEKGNYQPQQCHGSTGHCWCVNAMGEKISGTNTPPGQTRATCERHELPKCLKERQVALGGDEKVLGRFVPQCDEKGNYEPQQFHGSTGYSWCVNAIGEEIAGTKTPPGKIPATCQKHDLVTTCHYAVAMVKKSSAFQFNQLKGKRSCHSGVSKTDGWKALVTVLVEKKLLSWDGPAKESIQRAMSKFFSVSCIPGATQTNLCKQCKGEEGKNCKNSHDEPYYGNYGAFRCLKEDMGDVAFLRSTALSDEHSEVYELLCPDNTRKPLNKYKECNLGTVPAGTVVTRKISDKTEDINNFLMEAQKRQCKLFSSAHGKDLMFDDSTLQLALLSSEVDAFLYLGVKLFHAMKALTGDAHLPSKNKVRWCTINKLEKMKCDDWSAVSGGAIACTEASCPKGCVKQILKGEADAVKLEVQYMYEALMCGLLPAVEEYHNKDDFGPCKTPGSPYTDFGTLRAVALVKKSNKDINWNNIKGKKSCHTGVGDIAGWVIPVSLIRRQNDNSDIDSFFGESCAPGSDTKSNLCKLCIGDPKNSAANTKCSLSDKEAYYGNQGAFRCLVEKGDVAFVPHTVVFENTDGKNPAVWAKNLKSEDFELLCLDGSRAPVSNYKSCKLSGIPPPAIVTREESISDVVRIVANQQSLYGRKGFEKDMFQLFSSNKGNNLLFNDNTQCLATFDRQPKDIMEDYFGKPYYTTVYGASRSAMSSELISACTIKHC
B3: D794A: RcSxph STX binding pocket mutant D794A (protein)
chain: B2 chain with A801I, D813A
B4: F561A: RcSxph STX binding pocket mutant F561A (protein)
chain: B2 chain with F580A, A801I
B5: Y558A: RcSxph STX binding pocket mutant Y558A (protein)
chain: B2 chain with Y577A, A801I
B6: P727A: RcSxph STX binding pocket mutant P727A (protein)
chain: B2 chain with P746A, A801I
B7: Y558I: RcSxph STX binding pocket mutant Y558I (protein)
chain: B2 chain with Y577I, A801I
B8: D785N: RcSxph STX binding pocket mutant D785N (protein)
chain: B2 chain with A801I, D804N

System: not given
Assay: not given
Type: binding
Conditions: FP

Molecule	STX/F-STX affinity compared with RcSxph
B1	enhanced affinity

Same assay, conditions: FP, 1 nM F-STX, 25° C.; errors S.D.

Molecule	Kd [nM]
B1	0.5 ± 0.3
B2	3 ± 0.8
B3	13200 ± 6870
B4	16.8 ± 6
B5	1.4 ± 0.3
B6	56.9 ± 12.1
B7	1.2 ± 0.2
B8	4.4 ± 0.6

Same assay, conditions: ΔΔG = RT ln(Kd mutant or XSxph/Kd RcSxph); T = 298K; FP with F-STX

Molecule	ΔΔG [kJ/mol]
B1	-6.69
B2	-2.22
B3	18.5
B4	2.01
B5	-4.18
B6	5.06
B7	-4.48
B8	-1.26

System: Phyllobates terribilis NaV1.4 (PtNaV1.4)
Assay: Two-electrode voltage clamp: Sxph rescue of PtNaV1.4 from STX block in Xenopus oocytes
Type: cell-based
Conditions: [Sxph]:[STX] ratio, 100 nM STX, PtNaV1.4 in Xenopus oocytes

Molecule	Effective Rescue Ratio50 (ERR50)
B2	0.87±0.02
B6	> 4
B7	0.81±0.01

System: not listed separately
Assay: Thermofluor (TF) assay of STX binding
Conditions: 1.1 μM Sxph, 0-20 μM STX; ΔTm at 20 μM toxin

Molecule	ΔTm (STX-induced change of melting temperature)
B1	3.6 °C
B2	DTm increases relative to wild-type
B3	complete loss of the thermal shift
B8	DTm increases relative to wild-type

Biological target: not given
Assay: not given
Type: binding
Conditions: ITC, STX, 25° C.
Method: . […] In almost all mutants, binding affinity loss correlated with a reduction in enthalpy, consistent with a loss of interactions (Table S2). […]. […] Together, these three assays (FIGS. 1E and G) provide a robust and versatile suite of options for characterizing STX:Sxph interactions.
ITC measurements were performed at 25° C. using a MicroCal PEAQ-ITC calorimeter (Malvern Panalytical). […]. This STX stock was diluted with the SEC buffer to prepare 100 μM or 300 μM STX solutions having a final buffer composition of 135 mM NaCl, 9 mM HEPES, pH 7.4. […]. The calorimetric experiment settings were: reference power, 5 μcal/s; spacing between injections, 150 s; stir speed 750 rpm; and feedback mode, high. Data were analyzed using MicroCal PEAQ-ITC Analysis Software (Malvern Panalytical) using a single binding site model. The heat of dilution from titrations of 100 μM STX in 135 mM NaCl, 9 mM HEPES, pH 7.4 into 135 mM NaCl, 9 mM HEPES, pH 7.4 was subtracted from each experiment to correct the baseline.

Molecule	Kd [nM]	ΔG [kJ/mol]	ΔH [kJ/mol]	ΔS (cal mol^−1 K^−1)
B1	2.5 ± 0.1	-49.4 ± 0.42	-78.2 ± 0.84	−23.2 ± 0.8
B4	13.4 ± 1.4	-45.2 ± 0.42	-53.1 ± 0.84	−6.6 ± 0.9
B5	1.2 ± 0.4	-51 ± 0.84	-64 ± 0	−11.1 ± 1.1
B6	31.3 ± 11.6	-43.1 ± 0.84	-48.1 ± 0	−4.2 ± 0.9
B7	1.1 ± 0.5	-51 ± 1.3	-64.9 ± 1.3	−10.5 ± 0.6

Same assay, conditions: ITC, STX, 25° C.; listed as NpSxph WT

Molecule	ΔH [kJ/mol]
B1	-78.2 ± 0.84
